Experimental data published in the DeepSol protein solubility set.

Experiment: soluble on expression in E. coli; label from the status in PepcDB or PDB records

| Sequence | soluble on expression in E. coli |
| --- | --- |
| WLSGYAGPADGTQQPDAPEHAVAREALVDLCRRRHFLSGTPQQLSTAALLSGCHARFGPLGVELRKNLASQWWSSMVVFREQVFAVDSLHQEPGSSQPRDSAFRLVSPESIREILQDREPSKEQLVAFLENLLKTSGKLRATLLHGALEHYVNCLDLVNRKLPFGLAQIGVCFHPVSNSNQTPSSVTRVGEKTEASLVWFTPTRTSSQWLDFWLRHRLLWWRKFAMSPSNFSSADCQDELGRKGSKLYYSFPWGKEPIETLWNLGDQELLHTYPGNVSTIQGRDGRKNVVPCVLSVSGDVDLGTLAYLYDSFQLAENSFARKKSLQRKVLKLHPCLAPIKVALDVGKGPTVELRQVCQGLLNELLENGISVWPGYSETVHSSLEQLHSKYDEMSVLFSVLVTETTLENGLIQLRSRDTTMKEMMHISKLRDFLVKYLASASNVAAALDHHHHHH | soluble |
| SSGLVPRGPLGSHMDAVDATMEKLRAQCLSRGASGIQGLARFFRQLDRDGSRSLDADEFRQGLAKLGLVLDQAEAEGVCRKWDRNGSGTLDLEEFLRALRPPMSQAREAVIAAAFAKLDRSGDGVVTVDDLRGVYSGRAHPKVRSGEWTEDEVLRRFLDNFDSSEKDGQVTLAEFQDYYSGVSASMNTDEEFVAMMTSAWQLKL | soluble |
| SNAMARKKNTSDQSRSQAANTPIAGTYEGEYSVIELEADSYTTDGWLISINGVPSSHIVLGQPQALEFEYMRWIATGARAFIDAHQDASKLRITHLGGGACTMARYFADVYPQSRNTVVELDAELARLSREWFDIPRAPRVKIRVDDARMVAESFTPASRDVIIRDVFAGAITPQNFTTVEFFEHCHRGLAPGGLYVANCGDHSDLRGAKSELAGMMEVFEHVAVIADPPMLKGRRYGNIILMGSDTEFFSSNSTEASAITRELLGGGVPAQYKDESWVRKFASGAQARHDGVSTLQMPSDTPQHPAETPEHSNTQP | soluble |
| APSCPAGSLCTYSGTGLSGARTVIPASDMEKAGTDGVKLPASARSFANGTHFTLRYGPARKVTCVRFPCYQYATVGKVAPGAQLRSLPSPGATVTVGQDLGD | soluble |
| MGSDKIHHHHHHMLPETMKAVVLTAHGGLDKLVYRDDVPVPVCRAGEVLLDVTACGLNNTDVWVREGAYGTDDDPQAVSTWRRGRSTLSFPRIQGADIVGRVIAVGHGVSDARVGERVIVDASIYNRDDDSLADIDYIGHGRDGGYAEYTAVPAQSAHRIDSACSDAELATFWCAYHTGEQMIERAAVKSGETVLITGASGGVGSAIVQLCRARGAVPYAVVSKGKEEAVRELGAQGVMLRDSEDFAAAVERMTGGRPVDVVADLVGGALFGKLLNVLRPEGRYTTAGAIAGPVVQLDLRTMYLKQLQLNGSSQGTRGAFKRVLDYIQAGTIRPVLAATYPLSKFHEAQTQFMAKRFVGNIVVVPDRHYNGTADRT | not soluble |
| MFENTKKALETFRTAIECVKCKKPRGDLQYLGSSCKHAYCWECIATFQQKPSGKRSSVARHMCPSCAFPLDTSKITEAHMLKTCFDTLSELNDLLQKVGTTSLTQAEFACTQNIFNKEKTPADAVEKFLETQAHMPDEMGQLGEEDDDLMCKDENRENSNSPELDIFHDYSKEASPTRNSTKRPSTVSVHERKPKRTLTEILQRRSTAPAATGVATYAQAFGSSSNPVKAEIIEEDIFSKAIPLTKRQASMSASAKKQPKLEPEEPEEVPSTSRSRKNSIKSDKIERRSQSPMSFGEKSMSVKSEQRRSSYGTRRGEAVLVNSIRNNRIPQLRSAVEAGTCVNEKEDGKTPLYVAVENSSLEAVKILVEAGAVINASCGSTLETTLHEAVRRQNTQIVEYLLSKGASIKIRNIAGKTVEEMAKSDPKIRKIIEKFKTEQRVLQPVVAPPKSRLHFVQLIDEKMLTESEKRKLPGKINIVPADMDSPTHVVVTVDLKTRVLNINKEHIGEILKAIIKSGMIVSRDWLRACIIDPSKVDDDRSYMVQKVRWMEGEVFENTIEQWKKTITKMQPKLFAGCKFFIPKPKYNFLDRPALFEIIRSAGGQAAAREPIIDEKDPPPYHNANLKPNFVLYSLTHDIGDKFRDCTKYNLVSEQWLIEAILGCSITTPPH | not soluble |
| MGSDKIHHHHHHMTTVIAGVSGAIGGALARRYLSSYPDRSLIGLCRRPETAPDDLRNHSGVRLMAWDAEDEQRLDVAEFKAVLEASGPVYTVIYAGGLLHDGQMFPEKRLEDIDGRSMMRSYQVNCLGFVSLMQRLAPALRGKHFKRIAAVSAKVGSISDNQLGGWYAYRASKAALNMVVKNLSIELSRRYAPLACVSLHPGTTLSSLSQPFQQSLEQLTVHEPEQTASNLFSVLESLDARDNGRFISWDGSDLPW | not soluble |
